Our source for the Kd values is publication PMC6510727 (2019).

Read-outs that look alike come from different tables or passages of the source.

In one experiment the target is transducin α (Tα*) (Bos taurus, UniProt P04695). The experiment in a line: PDE activation assay fit (membranes).
Experiment [1] deals with T1, PDE catalytic subunit (PDEcat) (Bos taurus, UniProt P11541).
T1 chain 1: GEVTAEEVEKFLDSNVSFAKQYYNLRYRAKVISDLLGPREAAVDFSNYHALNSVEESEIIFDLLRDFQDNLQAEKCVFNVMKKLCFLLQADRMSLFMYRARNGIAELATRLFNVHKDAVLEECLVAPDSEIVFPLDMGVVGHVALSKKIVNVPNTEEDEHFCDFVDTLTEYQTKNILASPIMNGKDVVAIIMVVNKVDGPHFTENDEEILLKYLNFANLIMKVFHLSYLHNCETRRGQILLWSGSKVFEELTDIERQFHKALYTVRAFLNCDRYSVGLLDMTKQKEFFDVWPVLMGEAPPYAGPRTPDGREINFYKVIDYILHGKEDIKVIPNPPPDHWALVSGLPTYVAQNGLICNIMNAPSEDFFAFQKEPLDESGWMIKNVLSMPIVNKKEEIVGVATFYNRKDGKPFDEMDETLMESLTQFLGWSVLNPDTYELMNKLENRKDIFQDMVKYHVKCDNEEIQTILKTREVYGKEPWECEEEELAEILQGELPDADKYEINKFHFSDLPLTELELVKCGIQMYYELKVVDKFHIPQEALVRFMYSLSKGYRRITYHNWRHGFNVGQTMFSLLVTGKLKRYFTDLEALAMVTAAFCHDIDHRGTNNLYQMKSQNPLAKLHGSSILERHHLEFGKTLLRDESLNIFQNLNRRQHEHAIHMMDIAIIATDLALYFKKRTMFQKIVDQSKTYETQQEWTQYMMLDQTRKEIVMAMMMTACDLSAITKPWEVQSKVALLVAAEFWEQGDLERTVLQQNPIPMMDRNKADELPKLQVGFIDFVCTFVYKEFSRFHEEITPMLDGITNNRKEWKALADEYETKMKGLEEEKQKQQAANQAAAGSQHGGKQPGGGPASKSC
T1 chain 2: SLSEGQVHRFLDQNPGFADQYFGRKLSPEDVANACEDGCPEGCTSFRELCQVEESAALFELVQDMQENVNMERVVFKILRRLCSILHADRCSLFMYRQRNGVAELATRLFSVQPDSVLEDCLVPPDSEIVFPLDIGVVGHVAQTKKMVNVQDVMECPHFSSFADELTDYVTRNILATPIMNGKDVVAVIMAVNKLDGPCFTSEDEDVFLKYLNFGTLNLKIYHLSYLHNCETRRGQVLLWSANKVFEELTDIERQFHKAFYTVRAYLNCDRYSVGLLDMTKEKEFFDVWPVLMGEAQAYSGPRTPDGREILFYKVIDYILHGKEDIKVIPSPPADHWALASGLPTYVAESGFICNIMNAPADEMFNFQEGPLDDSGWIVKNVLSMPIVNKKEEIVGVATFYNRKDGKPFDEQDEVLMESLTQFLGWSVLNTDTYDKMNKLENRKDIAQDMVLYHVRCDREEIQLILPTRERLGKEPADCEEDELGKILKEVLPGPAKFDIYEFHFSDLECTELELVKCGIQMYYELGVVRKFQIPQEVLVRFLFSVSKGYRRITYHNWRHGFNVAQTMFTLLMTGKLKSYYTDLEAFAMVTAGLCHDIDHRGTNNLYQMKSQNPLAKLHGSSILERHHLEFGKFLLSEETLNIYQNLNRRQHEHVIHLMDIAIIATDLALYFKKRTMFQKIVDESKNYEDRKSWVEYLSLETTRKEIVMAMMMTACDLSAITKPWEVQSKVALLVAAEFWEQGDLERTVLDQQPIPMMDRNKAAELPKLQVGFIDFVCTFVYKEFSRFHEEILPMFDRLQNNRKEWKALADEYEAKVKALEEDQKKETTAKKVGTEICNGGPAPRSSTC
Kind of experiment: PDE activity assay (membranes).

A further experiment deals with transducin α (Tα-S*) (Bos taurus, UniProt P04695). The experiment in a line: PDE activation assay fit (solution).
Chain of transducin α (Tα-S*) (P04695 2-350): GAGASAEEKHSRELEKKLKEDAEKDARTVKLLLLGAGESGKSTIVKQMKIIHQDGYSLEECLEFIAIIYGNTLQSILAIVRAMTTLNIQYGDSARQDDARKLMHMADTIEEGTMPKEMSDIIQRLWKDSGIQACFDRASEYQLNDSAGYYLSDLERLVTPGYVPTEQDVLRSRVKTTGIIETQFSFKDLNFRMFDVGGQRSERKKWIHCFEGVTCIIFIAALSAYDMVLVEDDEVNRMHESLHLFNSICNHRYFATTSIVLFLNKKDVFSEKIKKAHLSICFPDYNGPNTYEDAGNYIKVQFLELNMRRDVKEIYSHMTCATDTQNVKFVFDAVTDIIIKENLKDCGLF
In experiment [2] the target is T1, PDE catalytic subunit (PDEcat).

Chain of transducin α (Tα*) (P04695 2-350): as above

B1: PDEγ (protein)
chain: MNLEPPKAEIRSATRVMGGPVTPRKGPPKFKQRQTRQFKSKPPKKGVQGFGDDIPGMEGLGTDITVICPWEAFNHLELHELAQYGII
modifications: activated Tα, membranes
In the experiment with transducin α (Tα*), B1 came in with a Kd of 56.5 pM.

B2: PDEγ (protein)
chain: B1 chain
modifications: membranes
B2 gave a Kd in experiment [1] of 55 pM.

B3: PDEγ (protein)
chain: B1 chain
modifications: GTPγS-bound Tα
Molecule B3 yielded a Kd with transducin α (Tα-S*) of 4500 pM. This counts as single-digit nanomolar.

B4: PDEγ (protein)
chain: B1 chain
Turning to B4, the equilibrium dissociation constant (Kd) in experiment [2] was 5 pM.
